Laboratory results as given in article PMC9482650, “Quantitative fragmentomics allow affinity mapping of interactomes” (Nature Communications, 2022).

T1: PDZD8, Q8NEN9
T1 sequence (Q8NEN9 361-459, limits assumed, looked up): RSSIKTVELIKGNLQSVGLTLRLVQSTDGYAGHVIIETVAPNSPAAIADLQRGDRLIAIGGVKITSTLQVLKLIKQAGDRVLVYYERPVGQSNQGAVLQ

T2: INTU, Q9ULD6
T2 sequence (Q9ULD6 180-273, limits assumed, looked up): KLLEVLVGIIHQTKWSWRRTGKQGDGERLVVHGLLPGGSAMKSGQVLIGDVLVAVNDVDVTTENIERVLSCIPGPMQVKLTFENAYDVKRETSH

T3: MPDZ_3, O75970
T3 sequence (O75970 372-473, limits assumed, looked up): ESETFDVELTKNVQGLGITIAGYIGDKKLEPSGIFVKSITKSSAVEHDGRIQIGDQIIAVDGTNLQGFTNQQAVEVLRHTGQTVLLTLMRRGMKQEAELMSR

T4: MPDZ_6, O75970
T4 sequence (O75970 1003-1099, limits assumed, looked up): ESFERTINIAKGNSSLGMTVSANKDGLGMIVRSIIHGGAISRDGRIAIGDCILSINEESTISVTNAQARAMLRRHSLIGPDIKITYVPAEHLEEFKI

T5: SHANK2, Q9UPX8
T5 sequence (Q9UPX8 621-730, limits assumed, looked up): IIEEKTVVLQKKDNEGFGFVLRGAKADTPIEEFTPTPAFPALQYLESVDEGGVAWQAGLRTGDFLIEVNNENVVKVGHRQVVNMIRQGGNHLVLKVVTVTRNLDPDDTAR

T6: MPP5, Q8N3R9
T6 sequence (Q8N3R9 251-346, limits assumed, looked up): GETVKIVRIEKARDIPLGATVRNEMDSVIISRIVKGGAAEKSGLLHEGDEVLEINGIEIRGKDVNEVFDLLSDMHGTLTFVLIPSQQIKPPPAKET

T7: SNTB2, Q13425
T7 sequence (Q13425 110-208, limits assumed, looked up): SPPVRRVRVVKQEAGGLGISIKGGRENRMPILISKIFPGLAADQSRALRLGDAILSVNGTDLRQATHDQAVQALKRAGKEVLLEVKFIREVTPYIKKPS

T8: PDZD7_2, Q9H5P4
T8 sequence (Q9H5P4 205-303, limits assumed, looked up): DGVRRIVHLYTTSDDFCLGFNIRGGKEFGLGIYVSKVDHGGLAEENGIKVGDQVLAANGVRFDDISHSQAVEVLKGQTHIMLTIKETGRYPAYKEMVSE

T9: USH1C_1, Q9Y6N9
T9 sequence (Q9Y6N9 82-179, limits assumed, looked up): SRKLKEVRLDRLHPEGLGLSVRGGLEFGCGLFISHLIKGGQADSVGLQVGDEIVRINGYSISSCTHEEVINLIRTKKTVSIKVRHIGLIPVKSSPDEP

T10: MPP1, Q00013
T10 sequence (Q00013 66-162, limits assumed, looked up): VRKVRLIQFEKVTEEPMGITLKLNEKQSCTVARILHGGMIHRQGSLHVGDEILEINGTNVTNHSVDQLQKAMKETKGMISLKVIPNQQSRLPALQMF

T11: USH1C_3, Q9Y6N9
T11 sequence (Q9Y6N9 447-547, limits assumed, looked up): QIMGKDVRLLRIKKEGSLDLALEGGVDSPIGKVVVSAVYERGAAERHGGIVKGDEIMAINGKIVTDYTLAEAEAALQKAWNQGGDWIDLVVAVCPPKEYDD

T12: SIPA1L3, O60292
T12 sequence (O60292 961-1052, limits assumed, looked up): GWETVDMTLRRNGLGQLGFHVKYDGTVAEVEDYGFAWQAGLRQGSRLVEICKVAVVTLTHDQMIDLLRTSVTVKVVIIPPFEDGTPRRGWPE

T13: PTPN13_5, Q12923
T13 sequence (Q12923 1877-1975, limits assumed, looked up): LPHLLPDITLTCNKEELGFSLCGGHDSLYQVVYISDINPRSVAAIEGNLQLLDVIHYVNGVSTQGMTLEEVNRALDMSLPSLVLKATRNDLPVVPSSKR


Assays:
Assay in all cases: holdup assay
Design in all cases: key: below the threshold = too weak to quantify, mostly under pKd 3.1 to 4
Conditions in all cases: plain residues with an end cap or a label only (N-terminal biotin on a linker: ttds)
PDZD8, Q8NEN9 = target: T1, PDZD8, Q8NEN9
INTU, Q9ULD6 = target: T2, INTU, Q9ULD6
MPDZ_3, O75970 = target: T3, MPDZ_3, O75970
PARD3B_3, Q8TEW8 = target: PARD3B_3, Q8TEW8
Sequence of PARD3B_3, Q8TEW8 (Q8TEW8 490-594): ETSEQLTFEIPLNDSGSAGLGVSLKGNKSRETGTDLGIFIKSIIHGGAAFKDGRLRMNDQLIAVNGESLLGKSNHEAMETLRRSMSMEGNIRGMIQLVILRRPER

LIMK1, P53667 = target: LIMK1, P53667
Sequence of LIMK1, P53667 (P53667 155-268): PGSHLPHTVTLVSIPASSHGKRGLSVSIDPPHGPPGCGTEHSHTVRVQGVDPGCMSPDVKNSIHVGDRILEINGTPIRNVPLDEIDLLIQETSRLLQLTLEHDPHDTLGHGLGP

PDLIM4, P50479 = target: PDLIM4, P50479
Sequence of PDLIM4, P50479 (P50479 1-83): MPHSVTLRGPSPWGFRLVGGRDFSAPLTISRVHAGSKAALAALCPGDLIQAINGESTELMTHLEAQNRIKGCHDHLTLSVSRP

MPDZ_6, O75970 = target: T4, MPDZ_6, O75970
SHANK2, Q9UPX8 = target: T5, SHANK2, Q9UPX8
MPP5, Q8N3R9 = target: T6, MPP5, Q8N3R9
PARD3_1, Q8TEW0 = target: PARD3_1, Q8TEW0
Sequence of PARD3_1, Q8TEW0 (Q8TEW0 264-372): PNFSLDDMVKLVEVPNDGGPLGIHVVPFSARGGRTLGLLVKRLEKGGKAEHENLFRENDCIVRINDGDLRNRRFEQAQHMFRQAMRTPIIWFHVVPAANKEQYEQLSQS

SNTB2, Q13425 = target: T7, SNTB2, Q13425
PDZD7_2, Q9H5P4 = target: T8, PDZD7_2, Q9H5P4
AHNAK2, Q8IVF2 = target: AHNAK2, Q8IVF2
Sequence of AHNAK2, Q8IVF2 (Q8IVF2 108-193): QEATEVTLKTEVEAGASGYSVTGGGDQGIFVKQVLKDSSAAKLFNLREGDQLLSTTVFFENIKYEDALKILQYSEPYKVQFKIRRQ

MAGI1_6, Q96QZ7 = target: MAGI1_6, Q96QZ7
Sequence of MAGI1_6, Q96QZ7 (Q96QZ7 1146-1238): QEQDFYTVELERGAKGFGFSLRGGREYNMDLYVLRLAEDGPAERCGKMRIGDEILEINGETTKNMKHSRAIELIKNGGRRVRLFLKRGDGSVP

USH1C_1, Q9Y6N9 = target: T9, USH1C_1, Q9Y6N9
PREX1_1, Q8TCU6 = target: PREX1_1, Q8TCU6
Sequence of PREX1_1, Q8TCU6 (Q8TCU6 608-718): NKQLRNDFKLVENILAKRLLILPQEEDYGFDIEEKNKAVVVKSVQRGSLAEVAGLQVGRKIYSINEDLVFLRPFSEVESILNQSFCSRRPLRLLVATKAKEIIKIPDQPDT

MPP1, Q00013 = target: T10, MPP1, Q00013
USH1C_3, Q9Y6N9 = target: T11, USH1C_3, Q9Y6N9
RGS3, P49796-9 = target: RGS3, P49796-9
Sequence of RGS3, P49796-9 (P49796 other isoform, or with tags, fused parts or gaps): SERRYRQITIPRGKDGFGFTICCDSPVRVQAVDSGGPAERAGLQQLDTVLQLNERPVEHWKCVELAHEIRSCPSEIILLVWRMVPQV

SIPA1L3, O60292 = target: T12, SIPA1L3, O60292
PTPN13_2, Q12923 = target: PTPN13_2, Q12923
Sequence of PTPN13_2, Q12923 (Q12923 1363-1462): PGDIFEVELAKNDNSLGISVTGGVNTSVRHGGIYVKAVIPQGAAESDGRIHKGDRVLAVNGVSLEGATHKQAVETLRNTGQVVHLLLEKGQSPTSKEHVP

PTPN13_5, Q12923 = target: T13, PTPN13_5, Q12923
DVL2, O14641 = target: DVL2, O14641
Sequence of DVL2, O14641 (O14641 260-359): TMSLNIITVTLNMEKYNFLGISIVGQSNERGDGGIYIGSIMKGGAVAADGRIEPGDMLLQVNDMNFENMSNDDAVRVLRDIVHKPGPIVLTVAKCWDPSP

Binder | pKd (PDZD8, Q8NEN9) | pKd (INTU, Q9ULD6) | pKd (MPDZ_3, O75970) | pKd (PARD3B_3, Q8TEW8) | pKd (PDLIM4, P50479) | pKd (MPDZ_6, O75970) | pKd (SHANK2, Q9UPX8) | pKd (MPP5, Q8N3R9) | pKd (PARD3_1, Q8TEW0) | pKd (SNTB2, Q13425) | pKd (PDZD7_2, Q9H5P4) | pKd (MAGI1_6, Q96QZ7) | pKd (USH1C_1, Q9Y6N9) | pKd (PREX1_1, Q8TCU6) | pKd (MPP1, Q00013) | pKd (USH1C_3, Q9Y6N9) | pKd (RGS3, P49796-9) | pKd (SIPA1L3, O60292) | pKd (PTPN13_2, Q12923) | pKd (PTPN13_5, Q12923) | other results
SSLQSLETSV [ATP2B4, P23634] | below the threshold | below the threshold | below the threshold | below the threshold | below the threshold | below the threshold | below the threshold | below the threshold | below the threshold | 4.87 | below the threshold | 4.49 | below the threshold | below the threshold | 4.23 | below the threshold | below the threshold | below the threshold | 4.45 | below the threshold | pKd (LIMK1, P53667): below the threshold; pKd (AHNAK2, Q8IVF2): below the threshold
RPLPRKVSQL [DOCK4, Q8N1I0] | below the threshold | – | below the threshold | below the threshold | below the threshold | below the threshold | below the threshold | below the threshold | below the threshold | below the threshold | below the threshold | below the threshold | below the threshold | below the threshold | 4.29 | below the threshold | below the threshold | below the threshold | below the threshold | below the threshold | pKd (DVL2, O14641): below the threshold; pKd (AHNAK2, Q8IVF2): below the threshold
QRQARSETLV [HPV59-E6, Q81964] | below the threshold | below the threshold | below the threshold | below the threshold | below the threshold | below the threshold | 4.47 | below the threshold | below the threshold | below the threshold | below the threshold | below the threshold | below the threshold | below the threshold | 6.03 | below the threshold | below the threshold | below the threshold | below the threshold | 4.52 | pKd (DVL2, O14641): below the threshold; pKd (LIMK1, P53667): below the threshold; pKd (AHNAK2, Q8IVF2): below the threshold
SKPTRRETEV [HPV35-E6, P27228] | below the threshold | below the threshold | below the threshold | 3.73 | 4.16 | below the threshold | below the threshold | below the threshold | below the threshold | – | below the threshold | 3.66 | below the threshold | below the threshold | below the threshold | below the threshold | below the threshold | below the threshold | below the threshold | below the threshold | pKd (DVL2, O14641): below the threshold
RLQRRRETQV [HPV18-E6, P06463] | below the threshold | below the threshold | below the threshold | below the threshold | below the threshold | below the threshold | below the threshold | below the threshold | below the threshold | 4.58 | below the threshold | below the threshold | below the threshold | below the threshold | below the threshold | below the threshold | below the threshold | below the threshold | below the threshold | below the threshold | pKd (DVL2, O14641): below the threshold; pKd (LIMK1, P53667): below the threshold
RHTTSTETAV [HPV30-E6, P36809] | below the threshold | below the threshold | below the threshold | below the threshold | below the threshold | below the threshold | below the threshold | below the threshold | below the threshold | 4.68 | below the threshold | 4.73 | below the threshold | below the threshold | 5.17 | below the threshold | below the threshold | below the threshold | below the threshold | below the threshold | pKd (DVL2, O14641): below the threshold; pKd (LIMK1, P53667): below the threshold; pKd (AHNAK2, Q8IVF2): below the threshold
